# Experiments:
# JNK3 [1] = target: T1, JNK3 (Homo sapiens, UniProt P53779); details: earlier work, reference 23; cited from earlier work
# MKK7-JNK3 module = MKK7-JNK3 module (Homo sapiens, UniProt O14733+P53779); assay: In vitro phosphorylation of JNK3α2 by MKK7 (reconstituted module); assay type: biochemical
# Method: Next, it was tested whether T1A acts as a scaffold facilitating signaling. To this end, experiments used purified proteins, because they provide the most definitive data supporting a direct interaction. As purified ASK1 is not available, MKK4-JNK3 and MKK7-JNK3 modules were reconstituted in the absence and presence of varying concentrations of synthetic purified T1A peptide and measured JNK3 phosphorylation (FIG. 2A). […] This dependence, where signaling is increased at lower scaffold concentrations and decreased at higher, was also found for scaffolding of these modules by full-length arrestin-3^20. It is believed to be a characteristic of simple scaffolds, which act by bringing the enzyme and substrate together, as lower scaffold concentrations make the formation of complete scaffold-enzyme-substrate ternary complexes likely, whereas higher concentrations increase the probability of formation of incomplete enzyme-scaffold and substrate-scaffold binary complexes, suppressing the signaling^25,26. […]
# JNK3α2^20,23, and MKK4 and MKK7^17,20 were expressed in E. coli and purified as previously described^40. The effect of arrestin-3 and MBP-T1A on the phosphorylation of JNK3α2 by MKK7 or MKK4 was analyzed by an in vitro kinase assay, as described^19,20. […] Phosphorylated JNK3α2 was visualized by rabbit anti-phospho JNK antibody (Cell Signaling) and the level of JNK phosphorylation was quantified.
# JNK3 [2] = target: T1, JNK3; assay: MBP pull-down of purified JNK3; assay type: binding; details: MBP-fusions, compared with T1A
# Method: FIG. 5. […] Residues that differ between T1A and B1A are shown in magenta. b, c, d) Pull-down of purified JNK3 (b), MKK4 (c), and MKK7 (d) by MBP (negative control), MBP-arrestin-3 (positive control), MBP-T1A, and MBP-B1A, was performed, as described in Methods. Lower panels, Coomassie gels of loaded MBP-fusions; middle panels, Western blots of retained JNK3 (b), MKK4 (c), and MKK7 (d); upper panels, quantification of Western blots from 3-4 independent experiments. […] T1A sequence shown is SEQ ID NO:1. B1A sequence shown is SEQ ID NO:6.
# To test the specificity of T1A action, its ability to bind purified MKK4, MKK7, and JNK3 was compared with that of B1A, a homologous N-terminal peptide from closely related arrestin-2, which differs from T1A only in four positions (FIG. 5). […] To test whether this difference in binding translates into differential activity in cells, the ability of YFP-T1A and YFP-B1A to facilitate JNK3 activation were compared in cells over-expressing ASK1, using YFP-arrestin-3 and YFP as positive and negative controls, respectively.
# To make MBP-fusions containing arrestin-2/3 elements, the cDNAs encoding arrestin fragments were subcloned into pMal-p2T (generous gift from Dr. Keiji Tanaka, Tokyo Institute of Medical Science) between Eco RI and Xho I sites in frame with MBP, as described^23. […] Eluates were analyzed by SDS-PAGE and Western blotting.
# T1 sequence (P53779 whole entry, species assumed): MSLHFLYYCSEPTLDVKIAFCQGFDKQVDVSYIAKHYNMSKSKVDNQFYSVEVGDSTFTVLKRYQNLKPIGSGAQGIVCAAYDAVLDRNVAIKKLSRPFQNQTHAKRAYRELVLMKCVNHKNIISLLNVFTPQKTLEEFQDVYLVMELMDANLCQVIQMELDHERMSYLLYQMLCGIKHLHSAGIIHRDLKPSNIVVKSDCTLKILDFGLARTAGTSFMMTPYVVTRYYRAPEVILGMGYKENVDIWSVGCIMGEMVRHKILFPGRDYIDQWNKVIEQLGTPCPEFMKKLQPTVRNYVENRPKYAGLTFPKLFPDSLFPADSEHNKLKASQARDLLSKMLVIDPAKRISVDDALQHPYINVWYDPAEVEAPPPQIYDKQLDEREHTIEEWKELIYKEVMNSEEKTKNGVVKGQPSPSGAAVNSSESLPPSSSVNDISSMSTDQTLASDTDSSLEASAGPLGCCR
# Sequence of MKK7-JNK3 module (O14733 whole entry): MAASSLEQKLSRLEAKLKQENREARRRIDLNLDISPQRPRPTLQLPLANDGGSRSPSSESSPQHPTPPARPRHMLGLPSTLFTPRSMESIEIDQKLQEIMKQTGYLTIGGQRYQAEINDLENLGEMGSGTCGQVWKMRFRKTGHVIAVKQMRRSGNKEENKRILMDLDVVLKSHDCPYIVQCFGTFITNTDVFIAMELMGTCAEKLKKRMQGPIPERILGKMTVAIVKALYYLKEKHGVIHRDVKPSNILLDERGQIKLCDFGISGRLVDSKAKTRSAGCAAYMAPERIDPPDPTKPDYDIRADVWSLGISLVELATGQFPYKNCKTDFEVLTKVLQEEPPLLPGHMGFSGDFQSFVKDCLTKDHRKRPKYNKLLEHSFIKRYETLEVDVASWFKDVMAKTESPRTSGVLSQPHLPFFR
# Sequence of MKK7-JNK3 module (P53779 whole entry): as the sequence (P53779 whole entry, species assumed) above
Substance,JNK3 binding element of arrestin-3 (JNK3 [1]),"optimal concentration relative to full-length arrestin-3, MKK7-JNK3 module (MKK7-JNK3 module)","JNK3 phosphorylation level by MKK7 as a function of T1A concentration (MKK7-JNK3 module; 50 nM MKK7, 1 μM JNK3α2, 10 sec, 30° C., synthetic purified peptide)",binding of JNK3 in MBP pull-down (JNK3 [2])
"MGEKPGTRVFKKSSPNCKLTVYLGK (bovine) [T1A, first 25 residues of arrestin-3]",key interaction site,~10 times lower,bell-shaped curves,
"MGDK-GTRVFKKASPNGKLTVYLGK (MGDKGTRVFKKASPNGKLTVYLGK; N-terminal MGDK; bovine) [B1A, homologous N-terminal peptide from arrestin-2, negative control]",,,,less robust interaction
